Results taken from paper PMC4627693 (Chemistry & biology, 2014).
Where no end group is shown, it is not given here. The star is where a group is joined. Biotin = O=C1N[C@H]2[C@H](CS[C@H]2CCCCC(=O)*)N1; code Z = ethylene glycol unit

Molecular target: c-Src tyrosine kinase (recombinant) (UniProt P00523 1-533)
Assay: cross-linking

Binder: {Biotin-code Z-code Z}-ICGEFRRR [Cys-Srctide (Biotin-ZZICGEFRRR)]
- EC50: 63 µM
